Reference: patent US20240376218A1
One block for each binder: values may come before it.

What was measured:
[1] = molecular target: human CCR8 tagged with ProLink (human); assay: cell-based or functional assay
[2] = molecular target: human CCR8 (human) (UniProt P51685); assay: cell-based or functional assay
[3] = molecular target: cynomolgus CCR8 (cynomolgus); assay: FACS, CHO cells expressing cynomolgus CCR8, signal at saturation
Chain of cynomolgus CCR8 (cynomolgus) (O97665 other isoform, or with tags, fused parts or gaps): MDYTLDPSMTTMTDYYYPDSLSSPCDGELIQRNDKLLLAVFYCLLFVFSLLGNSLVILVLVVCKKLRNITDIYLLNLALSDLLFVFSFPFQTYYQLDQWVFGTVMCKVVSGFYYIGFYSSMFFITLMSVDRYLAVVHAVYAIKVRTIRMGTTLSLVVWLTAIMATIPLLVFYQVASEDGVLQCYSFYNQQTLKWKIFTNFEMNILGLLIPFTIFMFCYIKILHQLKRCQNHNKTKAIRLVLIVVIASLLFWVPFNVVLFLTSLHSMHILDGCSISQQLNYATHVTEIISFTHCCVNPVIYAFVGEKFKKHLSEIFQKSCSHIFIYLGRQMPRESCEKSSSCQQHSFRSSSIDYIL

IC50 in nM for inhibition of CCL1 induced β-arrestin signaling (DiscoverX assay), CHO with hCCR8 [1]: 0.78 nM
Ca flux assay IC50 (nM), block of signaling induced by CCL1 at 60 ng/ml; CHO cells expressing human CCR8 [2]: 1.3 nM
Ca flux assay Span ratio (from max to min), block of signaling induced by CCL1 at 60 ng/ml; CHO cells expressing human CCR8 [2]: 996
Internalization [fold isotype], HuT78 cells, BODIPY FL-labelled antibody [2]: 22 fold isotype
B1: 433H (antibody, from another filing, V domains shown)
VH: EVQLVETGGGLVQPKGSLRLSCAASGFPFNTFAMNWVRQAPGKGLEWLARIRSKSNNYATYYADSVKDRFTISRDDSRRMLYLLMNNVKFEDTAIYYCVRGKENNYGYAMDYWGQGTSVTVSS
VL: DIVMTQAAPSVPVTPGESVSISCRSSQSLLHSNGNTYLYWFLQRPGQSPQLLIYRMSNLASGVPDRFSGSGSGTAFTLRISRVEAEDVGVYYCMQHLEYPFTFGIGTKLELKR

MFI [3]: < 1000
B2: Clone 433H (ICOS, BD) (antibody, from another filing, V domains shown)
VH: B1 VH
VL: B1 VL
